Data on one substance can be found in article PMC6736755.

This experiment addresses H-2 I-A^d class II MHC molecule (mouse). Nature of the experiment: radioligand binding.

As to OVA323–339 peptide (WT), the IC50 (as a rule, the midpoint of a concentration-inhibition curve) stood at 2 nM.
